Values quoted from earlier work as cited in paper PMC2734106.

Legend:
ubiquitin (Homo sapiens) = ubiquitin (Homo sapiens) (UniProt P0CG47)
[1] = molecular target: K48-linked tetraubiquitin (Homo sapiens) (UniProt P0CG47)

Chain of USP5 (P45974 2-858): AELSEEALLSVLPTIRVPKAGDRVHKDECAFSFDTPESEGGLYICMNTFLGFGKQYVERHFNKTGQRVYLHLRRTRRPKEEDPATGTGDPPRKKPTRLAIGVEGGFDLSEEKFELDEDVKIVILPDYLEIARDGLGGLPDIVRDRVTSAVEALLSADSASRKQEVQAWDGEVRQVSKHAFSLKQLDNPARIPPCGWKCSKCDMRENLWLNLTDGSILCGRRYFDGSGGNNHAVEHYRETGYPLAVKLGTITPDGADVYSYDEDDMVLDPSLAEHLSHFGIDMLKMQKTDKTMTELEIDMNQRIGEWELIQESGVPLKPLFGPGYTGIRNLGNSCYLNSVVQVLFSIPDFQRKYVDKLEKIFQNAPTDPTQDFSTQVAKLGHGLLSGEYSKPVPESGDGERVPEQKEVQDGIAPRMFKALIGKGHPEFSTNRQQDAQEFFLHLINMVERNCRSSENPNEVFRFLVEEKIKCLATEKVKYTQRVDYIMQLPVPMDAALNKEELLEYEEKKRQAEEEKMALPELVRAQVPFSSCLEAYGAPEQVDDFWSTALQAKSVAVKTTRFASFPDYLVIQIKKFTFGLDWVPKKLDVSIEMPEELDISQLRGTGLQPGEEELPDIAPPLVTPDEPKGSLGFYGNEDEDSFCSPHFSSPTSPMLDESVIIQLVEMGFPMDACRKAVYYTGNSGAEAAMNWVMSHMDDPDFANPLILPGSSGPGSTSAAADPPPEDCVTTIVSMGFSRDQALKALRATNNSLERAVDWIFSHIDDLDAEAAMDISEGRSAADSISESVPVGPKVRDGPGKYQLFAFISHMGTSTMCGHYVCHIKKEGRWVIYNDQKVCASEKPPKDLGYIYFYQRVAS

Kd (ubiquitin (Homo sapiens)): 50 nM | Kd [1]: < 1 nM
Substance: USP5 (from UniProt P45974)
